One substance from article PMC12012969 can be followed below.

The target in assay [1] is KslB, bacterial Pictet–Spenglerase from Kitasatospora setae (Kitasatospora setae). Put plainly: crystal structure.
For assay [2] the target is unchanged. Put plainly: SEC.

“KslB, bacterial Pictet–Spenglerase from Kitasatospora setae (enzyme)”: the stoichiometry N in assay [1] and in assay [2] was 2 in each case.
